Experimental data as given in the RNAGym collection of RNA variant scans (doi:10.1073/pnas.2313332121).

B1: TPR t1 (parent)
chain: GACCAAUCUGCCCUCAGAGCUCGAGAACAUCUUCGGAUGCAGAGGAGGCAGGCUUCGGUGGCGCGAUAGCGCCAACGUCCUCAACCUCCAAUGCAUCCCACCACAUGAUGAUGCCUGAAGAGCCUUGGUUUUUUG

Variants of: B1
Assay: polymerase ribozyme fitness, log enrichment relative to wild type (log ratio); higher = more active; in vitro selection for triplet polymerase activity
Procedure, shortened: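 The heterodimeric triplet polymerase ribozyme's subunits were each mutagenized into PCR-built libraries and transcribed. Every library was selected once, in triplicate, by annealing with a biotinylated primer, the partner subunit and triplets, incubating frozen at −7 °C, gel-excising extended constructs, capturing on streptavidin beads and running RT-PCR. Input and output libraries were Illumina-sequenced, with genotypes kept only at ≥10 input reads and ≥1 read per output. Fitness, from inverse-variance-weighted replicate averages, is the base-2 logarithm of genotype enrichment over wild-type enrichment.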

Variant	polymerase ribozyme fitness (log ratio)
U14C G63C	-2.35
C13U C56A C86A	-0.732
U14G A27U C94A	-5.54
U14C A18G U21C G69U A103C C115U	-5.98
U14A U33G A37U G42U G61C U109A	-6.69
U14A G63U G113A	-5.73
C13U G39U G44U A68G	-5.44
U14A G57C G58A G61A C89U G127U U129C U130C	-6.54
U14A C15A C20U U55G	-3.71
U14G C15U C20G C70U C123A	-5.25
U14C G110A	-2.2
C13U C56A C62U C97A C102U	-5.15
C13U G51U G60U C97U A119G G127U	-2.62
U14A G47A C102A A121C	-2.83
C13U C86G	-0.454
C13U C82U C85A G117A	-2.68
U14C G57U C80A U133A	-3.25
C13U G51U U116C	-3.09
C13U C79A C104A	-2.96
C13U C89G A90G G110C	-6.32
U14A C40A A50G A74G G117U	-5.9
U14G A50C C56G C89U A95G	-3.5
U14A C22A G61C G65A C101U G120C	-7.89
C13U G110C	-3.69

Variant	polymerase ribozyme fitness (log ratio)
C13U U112C G135U	1.11
C13U C56U U106G C114G	-4.09
C13U G71A C79U C123U	1.62
C13U C49A G71C G127C	-1.9
C13U G48A G122U	0.102
U14A G36C G47A	-4.55
C13U G57A C79A	-1.12
U14C A27U G44U C49A C94U G117C G127C	-7.98
U14G A27G A29G G36C C40U C56A G63U C115U G122A	-6.64
C13U G117C	-2.68
C13U G42U C56U C114G C123A	-1.36
C13U C99U	-2.12
U14A G120C	0.0767
U14A U54A U130G	-4.16
U14A A29U	-3.64
C13U G63A G77A C89U A90U G113A G122A U125A G127C	-5.73
U14A C85U	-2.79
U14A U54A	-2.74
U14G C15U C49G G58A U78C	-5.83
U14A A66U C98U	-4.97
C13U G51A C56G U78G C89U	-0.499
C13U C124A G128A	0.853
C13U G45U G52A A83C A103U C114U G127A	-5.65
U14G C34A A121G	-0.374

Variant	polymerase ribozyme fitness (log ratio)
C13U C62A U78C A118U G122A	-2.29
C13U U21C A27U A37U A50G C56A G69U A111C	-4.81
U14G C40A	-2.06
C13U G19U G42U G60A G110U	-5.83
C13U G60C G93A G110A U130A	-3.35
U14C C72U U78G C115U U116C	-3.05
U14A C70U U126C G135U	-3.92
C13U C123G	2.04
U14C C34A U87A	-4.01
C13U G71U U116G	-1.86
C13U U78C U92G U106A	-2.62
C13U G36U U92A	-4.57
C13U C64G U87G G120A C123G	-5.41
C13U U14A C15G G63A U81G U109A	-7.58
C13U G69A C82U	-2.59
U14G C15U A37U C56A A66C	-5.37
U14G A91U A111G	-4.63
C13U G57A G110U	-1.9
C13U C70G G122A	-2.19
U14G C40A G42C C80U G120U	-3.6
C13U C56U U81G A90G	-0.257
C13U C49U C79A C97G U109A	-7.98
C13U C40U C124G	1.61
C13U U55G C72G A100C A111U	-4.67

Variant	polymerase ribozyme fitness (log ratio)
U14C A84C	-2.42
C13U G60C G61A G117A	-2.25
U14A C70G U126C G135U	-4.99
U14C G127A U129A	-3.26
C13U G48U G110C	-4.34
C13U U106A	-0.0681
C13U G51U G52U C82A	-5.14
U14A C124A	-0.31
U14C G113A A118U	-4.79
C13U G120C C124U	1.91
C13U G60A G69A U112G	-5.04
U14C C70A G117U	-5.57
C13U G71A U78G U87A U131A	-1.51
C13U G63A	-0.373
C13U G23A A26G G61A C79U U106C	-4.2
C13U U33C A50G A84C C124G	-5.51
C13U G45A G60C	-0.761
C13U C56U A121C U130G	1.59
U14A A74G	-2.63
C13U C31A	-5.19
C13U U54A G61A	-0.0236
C13U U21C A27C U87G C114G	-6.59
C13U G51A C56G C72A U78G C89U	-0.967
C13U G127C	-1.18

Variant	polymerase ribozyme fitness (log ratio)
C13U G71C A95C	-1.52
C13U U14C A50U G120A	-0.904
C13U G25C U33G C70U U81A U109A	-6.3
C13U G48U G63C G110C	-4.51
C13U U55G A95U A111C A121U G127C	-0.336
C13U C34U G52C C70A	-5.48
C13U G42U G71U U87A G120C	-1.77
U14A A90G	-2.78
U14C C97U	-3.31
U14A A37U G52A U59C G71A	-3.95
C13U G63C U92A	-3.34
U14C A18G C49G G61A G69A G113A	-5.84
U14A C124A U130A	0.939
U14A A16U A50U C72A U81C	-5.83
U14G C15G U33G C40A C114G U130C	-5.88
C13U C73G	-0.465
C13U G19C C40U C72U C98A G110U	-8.2
U14A G36U A46C A91U C114G A121U G122A	-5.85
U14A G36U A37U	-3.4
C13U C56A	-0.36
U14C C56G A119U	-3.8
U14G A121C	0.71
U14C C49G A84C U106G U133G	-5.32
U14C A66U	-3.21

Variant	polymerase ribozyme fitness (log ratio)
C13U C115U G117C	-6.41
C13U C49A	-0.597
U14A A83U C86A U112A U131A	-2.42
C13U C56U U67G G71U U106G C114G	-7.12
C13U C94U A95C	-1.52
U14A A74G G77C G120C	-0.447
U14C C15U G39A G117A	-0.915
U14A G48A C53G C64U	-2.48
C13U G39C C88U C102U C104A G113A	-2.3
U14C G58U C70U G71U	-3.19
C13U G45A A84U U87A	-1.98
U14C U21A G61A G117C	-3.39
U14A U59A A91G	-4.05
C13U C53U	0.405
C13U C53G	-0.309
C13U C56U C124G U131C	2.69
C13U G69U C124U G135C	2.21
C13U G47A C82G C123G U125A	-1.19
U14A U78C	-2.86
U14C A26G A50G G52C U106C G117A	-5.87
C13U C56G C72A A105U	-2.1
C13U C53U U92C C123G U131A	-0.0541
U14A G57C G58A G61A A105C U109G	-6.86
U14G A37C	-2.99

Variant	polymerase ribozyme fitness (log ratio)
U14A A46U G61A A84U C85U	-4.32
U14G C40G G69A	-3.52
C13U U78C C80U	-0.408
C13U G77A	0.00416
U14A A37C A43U A90U U130G	-2.85
U14C G93A	-2.47
U14A A121U	1.98
U14G C40G C73A A105U	-4.25
U14G C20A C73U C102U U133A	-4.53
U14A A105G	-5.21
C13U C70A C73U	-1.58
C13U G113C	-1.31
C13U G71U C79G U81A	-3.02
U14C G77C G113A	-5.53
C13U G36C A43U U112G G127U G128A	-5.23
C13U C34U C62A G120C C124U	-6.16
U14C A90C	-3.39
U14A G44C G58U	-2.72
U14A A50C C80G G120U	-5.23
U14C C53G C73U A83G C94U	-3.11
C13U G61C C101A	-2.82
U14A G51U C124U G135A	-3.03
U14A A37U A84G	-2.93
